Like-named read-outs stand apart in the source and are kept apart here.
Experiments:
[1] = tested on: biotinylated alkaline phosphatase; test: Microtiter plate assay, biotin-binding activity after heat treatment at 99.9° C.; format: physicochemical; conditions: 99.9° C. for various time periods
Method: Reversibility of biotin binding was measured for avidin and the mutants with an IAsys optical biosensor (Laitinen, O. H. et al., FEBS Lett 461 (1999), 52-8). Protein samples were allowed to bind to a biotin-aminosilane cuvette in PBS containing 1 M NaCl. After the equilibrium was reached, biotin-containing buffer was added and the dissociation of the proteins was monitored. The affinities of the proteins towards 2-iminobiotin were determined with an IAsys optical biosensor (Marttila, A. T. et al. FEBS Lett 441 (1998), 313-7). Biotin-binding activity of the mutants Avd-ci and Avd-ccci after heat treatment was studied with a microtiter plate assay. Protein samples, 5 μg/ml concentration in PBS, were heated for various time periods at 99.9° C. and then chilled on ice. The samples were transferred to a Nunc Maxisorp-plate and incubated at 37° C. for 2 h. The wells were washed three times with PBS-Tween (0.05% v/v). […] The absorbances at 405 nm were measured after incubation for 45 minutes.
Biotin-binding activity of the proteins after heat treatment was studied with a microtiter plate assay (Nordlund, H. R., Laitinen, O. H., Uotila, S. T., Nyholm, T., Hytönen, V. P., Slotte, J. P. & Kulomaa, M. S. (2003) J. Biol. Chem. 278, 2479-2483). […] The absorbencies at 405 nm were measured after incubation for 45 minutes.

[2] = Non-reducing SDS-PAGE thermostability, oligomeric forms after boiling; format: physicochemical; conditions: boiled 20 minutes
Method: The heat stability of the AVRs was studied by using an SDS-PAGE-based method (Bayer, E. A., Ehrlich-Rogozinski, S. and Wilchek, M. (1996) Electrophoresis 17, 1319-1324). In this method, each protein sample was divided into two fractions one of which was kept biotin-free and the other was supplemented with an excess of biotin. The samples were then mixed with denaturing SDS-PAGE sample buffer (containing β-mercaptoethanol) and incubated at a given temperature for 20 minutes. After heat treatment, the samples were subjected to SDS-PAGE and visualised by staining with Coomassie brilliant blue. The relative proportions of tetrameric and monomeric forms of the AVR proteins (with avidin as the control) were detected. A similar assay, with β-mercaptoethanol omitted from the sample buffer, was performed to examine the presence of intersubunit disulfide-bridges. Sensitivity to proteinase K was studied both in the absence and in the presence of biotin as described (Laitinen, O. H., Airenne, K. J., Marttila, A. T., Kulik, T., Porkka, E., Bayer, E. A., Wilchek, M. and Kulomaa, M. S. (1999) FEBS Lett. 461, 52-8). The isoelectric point of each AVR was determined by isoelectric focusing as previously reported (Marttila, A. T., Airenne, K. J., Laitinen, O. H., Kulik, T., Bayer, E. A., Wilchek, M. and Kulomaa, M. S. (1998) FEBS Lett. 441, 313-317). The glycosylation patterns of the AVR proteins were studied by treating the proteins with Endo Hf and PNGase F glycosidase according to the manufacturer's instructions (New England Biolabs, Mass., USA).

[3] = IAsys optical biosensor, AVR4/5 forms binding to 2-iminobiotin surface; conditions: for Kd: 20° C.
Method: The biotin-binding characteristics of the different avidins were studied using an IAsys optical biosensor at 20° C. The reversibility of binding and binding affinities to the 2-iminobiotin surface in 50 mM borate buffer (pH 9.5, 1 M NaCl) were measured as previously reported (Laitinen, O. H., Hytönen, V. P., Ahlroth, M. K., Pentikäinen, O. T., Gallagher, C., Nordlund, H. R., Ovod, V., Marttila, A. T., Porkka, E., Heino, S., Johnson, M. S., Airenne, K. J. & Kulomaa, M. S. (2002) Biochem. J. 363, 609-617).
Briefly, The 2-iminobiotin ligand was immobilized onto the carboxymethyldextran surface of a cuvette using N-hydroxysuccinimide activation. Binding of various concentrations of avidin or avidin mutants onto 2-iminobiotinylated surface were measured in a 50 mM borate buffer (pH 9.5) containing 1 M NaCl at 20° C. The iminobiotin cuvettes were regenerated with 20 mM HCl. The kinetic rate constants for association (kass) and dissociation (kdiss) were calculated using the Fast Fit program package (Affinity Sensors). The obtained rate constants were used to calculate Kd(rel) according to Kd=kdiss/kass. Equilibrium data obtained from measurements with different protein concentrations were used to calculate the dissociation constant Kd(eq).

B1: AVR4/5: Recombinant chicken avidin-related protein 4/5 (AVR4 and AVR5 identical in coding sequence) (protein, UniProt P56734 25-150, looked up)
Avidin-related protein 4/5: ARKCSLTGKWTNNLGSIMTIRAVNSRGEFTGTYLTAVADNPGNITLSPLLGIQHKRASQPTFGFTVHWNFSESTTVFTGQCFIDRNGKEVLKTMWLLRSSVNDISYDWKATRVGYNNFTRLCTVEE
- biotin-binding activity after heat treatment [1]: superior stability against boiling
- Dimeric form, relative proportion [2]: 50 percentage
- Monomeric form, relative proportion [2]: 50 percentage
- kass [3]: (7.0 ± 2.1) × 10^3 M^−1s^−1
- kdiss [3]: (1.6 ± 1.4) × 10^−3 s^−1
- Kd ([3]; 50 mM borate pH 9.5, 1 M NaCl, read-out: Kd detected from the equilibrium response data): 160 nM
- Kd ([3]; pH 9.5, 1 M NaCl, read-out: Kd detected directly from the binding curves): 230 nM

Source: patent US20060281899A1, “Mutants of biotin binding protein” (priority 2002, published 2006)
